Reference: patent publication US20230151084A1, “COMPOSITIONS AND METHODS OF […] CELL RESPONSE” (CASE WESTERN RESERVE UNIVERSITY, priority 2015, published 2023)

Tested on: B cells
Test: BAFF and APRIL B cell growth (viability signaling in B cells)
Format: cell-based
Conditions: added C5a, compared with disabling B cell C3aR/C5aR signaling, which suppressed growth (FIG. 3)
Text: FIGS. 3(A-B) illustrate graphs showing BAFF and APRIL viability signaling in B cells depends on C3aR/C5aR signaling.
(FIGS. 1(A-C) and FIGS. 2(A-B)). […] (FIGS. 3(A-C)). […] (FIGS. 4(A-B)). Following ova immunization, recipients of adoptively transferred C3ar1^−/−C5ar1^−/− B cells produced reduced IgM Ab and no other isotypes.

B1: C5a: complement anaphylatoxin C5a, ligand of the C5a receptor (C5aR), added to B cells (protein, UniProt P01031 678-751, looked up)
C5a anaphylatoxin: TLQKKIEEIAAKYKHSVVKKCCYDGACVNNDETCEQRAARISLGPRCIKAFTECCVVASQLRANISHKDMQLGR
modifications: C5a anaphylatoxin
notes: complement anaphylatoxin C5a, ligand of the C5a receptor (C5aR), added to B cells
With B1 the “BAFF and APRIL B cell growth” value was “opposite effect”.
